Measured values as given in patent US20040022767A1 (Genentech, published 2004).

Tests used:
[1] = target: T1, soluble rat elk/Fc fusion protein (rat; human, UniProt P09759 18-540; P01857 99-330 = IgG part, limits assumed); test: indirect Scatchard analysis, biphasic, first component; elk/Fc titrated on transfected CV-1/EBNA-1 cells, detected with 125I-mouse anti-human IgG
T1 construct: extracellular domain;domain: Fc region (hinge to native C-terminus)

[2] = target: T1, soluble rat elk/Fc fusion protein; test: indirect Scatchard analysis, biphasic, second component; elk/Fc titrated on transfected CV-1/EBNA-1 cells, detected with 125I-mouse anti-human IgG
[3] = target: T2, soluble hek/Fc fusion protein (human, UniProt P29320 21-541; P01857 99-330 = IgG part, limits assumed); test: indirect Scatchard analysis; hek/Fc titrated on transfected CV-1/EBNA-1 cells, detected with 125I-mouse anti-human IgG
T2 construct: extracellular domain;domain: Fc region (hinge to native C-terminus); The extracellular domain and the dimeric state are inferred from that analogy

[4] = target: T2, soluble hek/Fc fusion protein; test: indirect Scatchard analysis, biphasic, second component; hek/Fc titrated on transfected CV-1/EBNA-1 cells, detected with 125I-mouse anti-human IgG
[5] = target: T2, soluble hek/Fc fusion protein; test: indirect Scatchard analysis, biphasic, first component; hek/Fc titrated on transfected CV-1/EBNA-1 cells, detected with 125I-mouse anti-human IgG
[6] = target: T1, soluble rat elk/Fc fusion protein; test: indirect Scatchard analysis; elk/Fc titrated on transfected CV-1/EBNA-1 cells, detected with 125I-mouse anti-human IgG
Text: CV1-EBNA-1 cells (described in Example 3) in 12-well plates (2.5×10⁵ cells/well) were transfected with an expression vector containing the clone E7 elk-L cDNA. The mammalian expression vector, designated pDC410, is similar to pDC406 (McMahan et al., EMBO J. 10:2821, 1991). In pDC410, the EBV origin of replication of pDC406 is replaced by DNA encoding the SV40 large T antigen (driven from an SV40 promoter). The pDC410 multiple cloning site (mcs) differs from that of pDC406 in that it contains additional restriction sites and three stop codons (one in each reading frome). A T7 polymerase promoter downstream of the mcs facilitates sequencing of DNA inserted into the mcs. The transfected cells were cultured for two days to permit expression of the elk-L protein, then washed with BM-NFDMv (the binding medium described in Example 2, also containing 50 mg/ml nonfat dry milk), and incubated with various concentrations of the elk/Fc fusion protein prepared in Example 1, for 1 hour at 37° C. Subsequently, cells were washed and incubated with a constant saturating concentration of the ¹²⁵I-labeled mouse anti-human IgG antibody prepared in Example 2 (40 ng/ml) in binding medium with gentle agitation for 1 hour at 37° C. Cells then were harvested by trypsinization. […]

T2 sequence (P29320 other isoform, or with tags, fused parts or gaps limits assumed): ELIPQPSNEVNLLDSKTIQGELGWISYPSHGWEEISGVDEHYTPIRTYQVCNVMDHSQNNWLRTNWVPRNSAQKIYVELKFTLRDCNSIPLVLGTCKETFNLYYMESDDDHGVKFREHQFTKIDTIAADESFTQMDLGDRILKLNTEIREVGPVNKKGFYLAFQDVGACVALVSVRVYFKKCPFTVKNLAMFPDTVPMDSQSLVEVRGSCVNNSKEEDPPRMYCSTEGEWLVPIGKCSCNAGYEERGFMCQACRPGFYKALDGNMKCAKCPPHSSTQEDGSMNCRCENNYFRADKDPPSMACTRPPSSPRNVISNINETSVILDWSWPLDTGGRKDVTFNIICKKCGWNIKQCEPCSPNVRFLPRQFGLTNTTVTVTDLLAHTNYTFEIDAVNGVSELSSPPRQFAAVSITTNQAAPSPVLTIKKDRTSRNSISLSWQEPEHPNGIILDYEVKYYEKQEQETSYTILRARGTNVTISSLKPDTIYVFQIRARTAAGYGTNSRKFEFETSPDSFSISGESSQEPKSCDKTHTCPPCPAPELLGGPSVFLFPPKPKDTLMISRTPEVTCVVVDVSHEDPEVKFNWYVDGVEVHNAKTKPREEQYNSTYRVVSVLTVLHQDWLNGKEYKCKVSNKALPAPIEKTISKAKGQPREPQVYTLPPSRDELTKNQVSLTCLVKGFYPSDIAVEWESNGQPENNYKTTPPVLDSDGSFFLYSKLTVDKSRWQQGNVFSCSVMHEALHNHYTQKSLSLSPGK
T1 sequence (P09759 other isoform, or with tags, fused parts or gaps limits assumed): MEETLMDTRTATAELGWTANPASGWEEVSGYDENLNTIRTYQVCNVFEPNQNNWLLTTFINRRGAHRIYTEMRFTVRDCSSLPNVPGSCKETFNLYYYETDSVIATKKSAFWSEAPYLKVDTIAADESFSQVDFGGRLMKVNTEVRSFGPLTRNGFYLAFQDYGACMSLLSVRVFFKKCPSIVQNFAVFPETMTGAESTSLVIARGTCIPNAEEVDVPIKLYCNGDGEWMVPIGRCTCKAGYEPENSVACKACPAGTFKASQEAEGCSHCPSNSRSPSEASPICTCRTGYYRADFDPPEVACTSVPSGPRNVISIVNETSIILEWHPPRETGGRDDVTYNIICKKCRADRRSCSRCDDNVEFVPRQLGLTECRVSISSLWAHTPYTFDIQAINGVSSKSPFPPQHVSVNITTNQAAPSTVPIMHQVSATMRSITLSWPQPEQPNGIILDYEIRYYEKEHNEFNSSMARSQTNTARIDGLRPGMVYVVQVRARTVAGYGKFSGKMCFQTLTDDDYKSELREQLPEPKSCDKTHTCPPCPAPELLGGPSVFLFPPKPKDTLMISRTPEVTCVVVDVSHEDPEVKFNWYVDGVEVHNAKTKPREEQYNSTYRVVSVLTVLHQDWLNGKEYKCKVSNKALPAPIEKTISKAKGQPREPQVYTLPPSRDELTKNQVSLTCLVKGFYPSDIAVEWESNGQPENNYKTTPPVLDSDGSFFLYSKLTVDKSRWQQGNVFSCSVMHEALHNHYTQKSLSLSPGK

B1: hek-L protein designated A2, expressed on transfected CV-1/EBNA-1 cells (ligand, UniProt P52797 23-214, looked up)
chain: QGPGGALGNRHAVYWNSSNQHLRREGYTVQVNVNDYLDIYCPHYNSSGVGPGAGPGPGGGAEQYVLYMVSRNGYRTCNASQGFKRWECNRPHAPHSPIKFSEKFQRYSAFSLGYEFHAGHEYYYISTPTHNLHWKCLRMKVFVCCASTSHSGEKPVPTLPQFTMGPNVKINVLEDFEGENPQVPKLEKSISG
notes: whole, on cells; also called hek-L A2; hek ligand A2
Question: How did the Ka [1] turn out when B1 was run?
Answer: 2.7e+08 M⁻¹

Question: What about the Ka [2] of the same binder?
Answer: 3.5e+07 M⁻¹

Question: What about the Ka [3] of the same binder?
Answer: 2e+08 M⁻¹

B2: hek-L protein designated C6, expressed on transfected CV-1/EBNA-1 cells (ligand, UniProt P52798 26-170, looked up)
chain: LRHVVYWNSSNPRLLRGDAVVELGLNDYLDIVCPHYEGPGPPEGPETFALYMVDWPGYESCQAEGPRAYKRWVCSLPFGHVQFSEKIQRFTPFSLGFEFLPGETYYYISVPTPESSGQCLRLQVSVCCKERKSESAHPVGSPGES
notes: whole, on cells; also called hek-L C6; hek ligand C6
Question: With B2 as the binder, how does the Ka [1] read?
Answer: 1.3e+08 M⁻¹

Question: And the Ka [2]?
Answer: 5.4e+07 M⁻¹

Question: What about the Ka [3] of the same binder?
Answer: 2e+08 M⁻¹

B3: B61 protein expressed on transfected CV-1/EBNA-1 cells (ligand, human, UniProt P20827 19-182, looked up)
chain: DRHTVFWNSSNPKFRNEDYTIHVQLNDYVDIICPHYEDHSVADAAMEQYILYLVEHEEYQLCQPQSKDQVRWQCNRPSAKHGPEKLSEKFQRFTPFTLGKEFKEGHSYYYISKPIHQHEDRCLRLKVTVSGKITHSPQAHDNPQEKRLAADDPEVRVLHSIGHS
notes: whole, on cells
Question: How did the Ka [1] turn out when B3 was run?
Answer: 2.3e+08 M⁻¹

Question: What about the Ka [2] of the same binder?
Answer: 7e+07 M⁻¹

Question: What about the Ka [3] of the same binder?
Answer: 5.5e+07 M⁻¹

B4: human elk ligand (elk-L), clone E7, expressed on transfected CV-1/EBNA-1 cells (ligand)
chain: ATPLAKNLEPVSWSSLNPKFLSGKGLVIYPKIGDKLDIICPRAEAGRPYEYYKLYLVRPEQAAACSTVLDPNVLVTCNRPEQEIRFTIKFQEFSPNYMGLEFKKHHDYYITSTSNGSLEGLENREGGVCRTRTMKIIMKVGQDPNAVTPEQLTTSRPSKEADNTVKMATQAPGSRGSLGDSDGKHETVNQEEKSGPGASGGSSGDPDGFFNSKVALFAAVGAGCVIFLLIIIFLTVLLLKLRKRHRKHTQQRAAALSLSTLASPKGGSGTAGTEPSDIIIPLRTTENNYCPHYEKVSGDYGHPVYIVQEMPPQSPANIYYKV
Question: B4 was tested. Which Ka [4] did it give?
Answer: 2.9e+06 M⁻¹

Question: What about the Ka [5] of the same binder?
Answer: 2.3e+07 M⁻¹

Question: And the Ka [6]?
Answer: 1.08e+09 M⁻¹
